US20030228672A1, “Sorbitol dehydrogenases of ketogulonigenium species, genes and methods of use thereof” (priority 2002, published 2003)

Tests used:
[1] = test system: dehydrogenase enzyme activity in cellular fractions; assay: Enzyme assays with cellular fractions employing nicotinamide cofactors; format: biochemical, K. robustum ADM X6L and Ketogulonigenium sp. ADM 291-19; details: different substrates, either strain
[2] = test system: K. robustum ADM X6L transformants; assay: Bioconversion of D-sorbitol by transformants, HPLC of culture supernatant; format: cell-based, Ketogulonigenium robustum ADM X6L; details: D-sorbitol as substrate
Protocol: (§1) For expression of the three SDH genes in K. robustum strains, the genes with their own promoters were subcloned into the vector, pXH2/K5. These plasmids were transformed into the strains, K. robustum ADM X6L and 86-96 (NRRL B-21630), by electroporation. In this case, gene dosage effect may be expected due to the apparent high copy number of the plasmid pXH2/K5. The transformants were analyzed by HPLC for improved conversion activity upon overexpression of each SDH gene using D-sorbitol and L-sorbose as substrate.
(§2) The effect of overexpression of the three SDH genes in bioconversion activity was analyzed by HPLC analysis of the product profile of the culture supernatant of transformants in a medium containing D-sorbitol or L-sorbose as substrate. The transformants were cultivated overnight in RM medium containing 20 μg/ml of Kanamycin. This overnight culture was used to inoculate the 25 ml RM medium (supplemented with 20 μg/ml of Kanamycin) containing 20 g/l of D-sorbitol or 20 g/l of L-sorbose as substrate instead of mannitol. The culture supernatant samples were taken in a 12-hour interval and were analyzed by HPLC (Gilson HPLC with RI detector (ERC-7515A, ERC Inc.)) equipped with Asted XL automatic sample injector. Samples were loaded on two 2 mm×300 mm×7.8 mm Aminex HPX-87H columns (BioRad) arranged in series to provide a total column length of 600 mm. The column was run at 50° C. at a flow rate of 0.5 ml/min. The peaks were identified and the concentration was determined by comparison with those of the standards using glycerol as internal standard.
K. robustum ADM X6L transformants harboring the pXSDH1, pXSDH2 or pXSDH3 were cultivated with D-sorbitol or L-sorbose as substrate. HPLC analysis of the products from D-sorbitol (Table 10) or L-sorbose (Table 11) is shown below. A transformant harboring pXH2 served as control.

[3] = test system: K. robustum ADM X6L transformants; assay: Bioconversion of L-sorbose by transformants, HPLC of culture supernatant; format: cell-based, Ketogulonigenium robustum ADM X6L
Protocol: as §1
as §2, with “Samples were loaded on two 2 mm×300 mm×7.8 mm Aminex HPX-87H columns (BioRad) arranged in series to provide a total column length of 600 mm. The column was run at 50° C. at a flow rate of 0.5 ml/min.” left out, “standard. […]” for “standard.”

Molecule	nicotinamide cofactor dependence (in words) [1]	products formed upon overexpression with D-sorbitol as substrate (in words) [2]	improvement of 2KLG production from L-sorbose upon overexpression ([3]; flask scale experiment, versus pXH2 control)	2KLG production from L-sorbose upon overexpression (in words) ([3]; flask scale experiments)
NC(=O)c1ccc[n+]([C@@H]2O[C@H](COP(=O)([O-])OP(=O)(O)OC[C@H]3O[C@@H](n4cnc5c(N)ncnc54)[C@H](O)[C@@H]3O)[C@@H](O)[C@H]2O)c1 [AND]	did not show any sign of nicotinamide cofactor dependence			
NC(=O)c1ccc[n+]([C@@H]2O[C@H](COP(=O)([O-])OP(=O)(O)OC[C@H]3O[C@@H](n4cnc5c(N)ncnc54)[C@H](OP(=O)(O)O)[C@@H]3O)[C@@H](O)[C@H]2O)c1 [NADP]	did not show any sign of nicotinamide cofactor dependence			
SDH2: sorbitol dehydrogenase of K. robustum ADM 86-96, 579 amino acids (SEQ ID NO:7) (protein, listed as Ketogulonigenium sp.) MKTKSFLFAGVAALASYGTIALADVTPVTDELLANPPAGEWISYGRNQENYRHSPLNQITPENVGQLQLVWARGMNAGKVQVTPLIHDGVMYLANPGDIIQAIDAKTGDLIWEHRRQLPNVATLNSFGEPIRGIALYGTNVYFVSWDNHLVALDAATGQVTFDVDRGQGEDMVSNSSGPIVANGVIVAGSTCQYSPFGCFVSGHDATTGEELWRNYFIPKAGEEGDETWGNDYEARWMTGVWGQITYDPVTNLVFYGSSAVGPASETQRGTTGGTMYGTNTRFAVRPDTGEIVWRHQTLPRDNWDQECTFEMMVANVDVQPSADMDGLKSINPNAATGERRVLTGVPCKTGTMWQFDAETGEFLWARDTNYQNMISSIDETGLVTVNEDIILKDLDTDYRICPTFLGGRDWPSASLNPDSGIYFIPLNNACADLAAVDQEFTAMDVYNTSATYLLAPEKENMGRIDAIDISTGKTLWSVERLASNYSPVLSTAGGVLFNGGSDRYFRALSEETGETLWQTRLATVASGQAVSYELDGVQYIAIAGGGTTYGAVQNRPLAEPVDSTSIGNAVYVFALPQQ		formation of 2-keto-D-gluconic acid (2KDG) as well as 2KLG	2-3 times	significantly improved
